From patent publication US20100221257A1

Legend:
[1] = biological target: human IL-1R1, endogenous on human cells (HeLa cells; whole blood) (human) (UniProt P14778); experiment: cell-based or functional assay
[2] = biological target: Human sIL-1R1 (R&D Systems), un-tagged (human) (UniProt P14778); experiment: KinExA, IgG equilibrated in solution with un-tagged sIL-1R1; free IgG captured on IL-1R1 beads
Human sIL-1R1 (R&D Systems), un-tagged (human), sequence (P14778 18-332 limits assumed): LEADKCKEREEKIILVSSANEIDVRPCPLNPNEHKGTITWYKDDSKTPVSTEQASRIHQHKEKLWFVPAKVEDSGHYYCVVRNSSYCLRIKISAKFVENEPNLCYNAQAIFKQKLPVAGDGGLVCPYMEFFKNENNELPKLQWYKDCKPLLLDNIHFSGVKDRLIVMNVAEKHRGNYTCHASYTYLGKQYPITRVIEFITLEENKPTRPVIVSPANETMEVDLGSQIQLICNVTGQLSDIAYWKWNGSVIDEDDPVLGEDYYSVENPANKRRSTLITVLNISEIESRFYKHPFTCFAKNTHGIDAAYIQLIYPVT

human IL-1R1, endogenous on human cells (HeLa cells; whole blood) (human), sequence (P14778 18-569): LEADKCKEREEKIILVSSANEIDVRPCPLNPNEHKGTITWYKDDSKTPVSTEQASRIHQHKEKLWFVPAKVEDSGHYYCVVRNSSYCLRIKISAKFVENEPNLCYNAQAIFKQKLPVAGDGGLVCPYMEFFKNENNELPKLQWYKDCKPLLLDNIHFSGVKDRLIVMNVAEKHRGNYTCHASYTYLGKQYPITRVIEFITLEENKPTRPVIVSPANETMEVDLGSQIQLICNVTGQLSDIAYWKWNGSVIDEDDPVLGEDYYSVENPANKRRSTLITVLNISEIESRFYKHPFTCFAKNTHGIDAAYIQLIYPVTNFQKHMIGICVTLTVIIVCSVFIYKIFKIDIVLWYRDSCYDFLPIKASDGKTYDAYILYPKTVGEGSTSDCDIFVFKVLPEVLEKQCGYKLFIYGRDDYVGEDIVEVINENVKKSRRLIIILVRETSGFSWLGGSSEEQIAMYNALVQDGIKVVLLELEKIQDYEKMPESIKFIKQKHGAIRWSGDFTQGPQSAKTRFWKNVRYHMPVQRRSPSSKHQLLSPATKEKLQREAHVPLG

- IC50, inhibition of IL-1 alpha induced IL-8 release in HeLa cells (N = 3) [1]: 11.7 pM
- IC50, inhibition of IL-1 beta induced IL-8 release in HeLa cells (run with the GL IgG2 set, N = 5-6) [1]: 5.9 pM
- IC50, inhibition of IL-1 beta induced IL-8 release in HeLa cells (run with the IgG1 set, N = 6-7) [1]: 5.3 pM
- IC50, inhibition of human IL-1β induced IL-8 release from HeLa cells [1]: 9 pM
- Kd [2]: 4.12 pM
Substance: AMG108 IgG2 (antibody)
